Like-named read-outs stand apart in the source and are kept apart here. No end group written: not given here. *: point of attachment. Biotin = O=C1N[C@H]2[C@H](CS[C@H]2CCCCC(=O)*)N1
T1: BamA ECL4 peptide S2, native (Treponema pallidum subsp. pallidum, …)
T1 chain: Biotin-RVVKNFYDKDNNQPFDL


Experiments:
[1] = molecular target: T2, Tp BamA β-barrel (TP0326) (Treponema pallidum subsp. pallidum, …, UniProt O83346)
Target sequence in this assay (O83346 434-837): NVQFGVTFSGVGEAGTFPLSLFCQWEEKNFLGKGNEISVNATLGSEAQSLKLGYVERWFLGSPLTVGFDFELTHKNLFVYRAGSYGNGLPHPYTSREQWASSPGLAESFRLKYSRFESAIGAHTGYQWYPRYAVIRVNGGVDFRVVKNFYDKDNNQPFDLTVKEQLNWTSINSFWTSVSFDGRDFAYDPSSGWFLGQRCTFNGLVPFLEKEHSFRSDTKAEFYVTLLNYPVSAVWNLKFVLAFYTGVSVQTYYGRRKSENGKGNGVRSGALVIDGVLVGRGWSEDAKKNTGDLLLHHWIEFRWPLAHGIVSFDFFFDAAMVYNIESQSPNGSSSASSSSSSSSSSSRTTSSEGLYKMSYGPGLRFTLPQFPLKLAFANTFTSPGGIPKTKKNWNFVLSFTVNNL

[2] = molecular target: T1, BamA ECL4 peptide S2, native
[3] = molecular target: T2, Tp BamA β-barrel (TP0326); experiment: immunoblot; 200 to 1 ng of PfTrx^BamA/ECL4 or of BamA β-barrel (in 8M urea, Laemmli buffer) resolved by SDS-PAGE, transferred to nitrocellulose, probed with mAb at 4 μg/ml; details: both partners purified
Target sequence in this assay (O83346 whole entry, looked up): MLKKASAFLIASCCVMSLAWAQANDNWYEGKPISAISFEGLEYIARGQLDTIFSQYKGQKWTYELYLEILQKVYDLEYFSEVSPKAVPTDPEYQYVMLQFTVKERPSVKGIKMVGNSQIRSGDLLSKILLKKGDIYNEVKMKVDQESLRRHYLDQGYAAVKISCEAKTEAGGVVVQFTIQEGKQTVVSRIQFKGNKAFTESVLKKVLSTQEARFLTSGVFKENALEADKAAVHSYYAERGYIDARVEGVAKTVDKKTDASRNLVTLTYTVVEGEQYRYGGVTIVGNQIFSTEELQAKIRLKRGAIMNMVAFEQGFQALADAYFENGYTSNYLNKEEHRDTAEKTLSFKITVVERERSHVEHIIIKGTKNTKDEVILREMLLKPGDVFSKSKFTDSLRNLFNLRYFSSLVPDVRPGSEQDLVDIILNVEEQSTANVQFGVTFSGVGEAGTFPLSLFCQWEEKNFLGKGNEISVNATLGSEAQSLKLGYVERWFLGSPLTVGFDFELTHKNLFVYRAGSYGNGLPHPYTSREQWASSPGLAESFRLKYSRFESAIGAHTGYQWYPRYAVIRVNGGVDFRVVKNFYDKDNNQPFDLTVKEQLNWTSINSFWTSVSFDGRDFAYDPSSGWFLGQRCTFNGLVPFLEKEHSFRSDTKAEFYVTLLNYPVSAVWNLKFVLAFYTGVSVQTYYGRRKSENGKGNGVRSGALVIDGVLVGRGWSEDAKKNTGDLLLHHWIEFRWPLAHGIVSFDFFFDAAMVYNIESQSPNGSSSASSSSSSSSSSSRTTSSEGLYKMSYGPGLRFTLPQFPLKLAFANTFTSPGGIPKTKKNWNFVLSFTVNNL

Binder | binding result [1] | binding result [2] | binding result [3]
IGX7128 (antibody, V domains shown) VH: EVQLVQSGADVKKPGASLTISCQASGYTFTDYWISWVRQKPGKGLEWMGAIAPSTSKTEYGPSFQGHVTISADRSTATAYLQWRSLEASDTAMYYCVRQSAQTDSWGPGTLVTVSS VL: SYELTQPPSVSVSPGQTARITCSGDALPKKYAYWYQQKSGQAPVLVIYEDRKRYSGIPERFSGSSSGTMATLTISGAQVEDEADYYCYSKAAKGNYMVFGGGTKLTVL | binds | binds | –
mAb IGX7140 (antibody, V domains shown, heavy-chain variable region from the Epivolve scFv; mouse IgG2 heavy-chain constant region; light-chain variable region LC2 (as the light chain of m2); mouse light-chain constant domain; Mouse IgG2 with variable regions from the Epivolve scFv; also called IXG7140; source: HEK293-E, transfected (pTT5), purified from supernatant (Protein A)) VH: EVQLVQSGADVKKPGASLTISCQASGYTLTDYWISWVRQKPGKGLEWMGAISPANSRTSYGPSFQGHVTFSADRSTATAYLQWRSLEASDTAMYYCVRQGAQTDRWGPGTLVTVSS VL: SYELTQPPSVSVPPGQTARITCSGDALPKKYAYWYQQKSGQAPVLVIYEDMKRPSGIPERFSGSSSGTTATLTISGAQVEDEADYYCYSKAFDGNYFVFGGGTKLTVL | – | – | binds
mAb IGX7137 (antibody, V domains shown, heavy-chain variable region from the Epivolve scFv; mouse IgG2 heavy-chain constant region; light-chain variable region LC2 (shared with IGX7140); mouse light-chain constant domain; Mouse IgG2 with variable regions from the Epivolve scFv; source: HEK293-E, transfected (pTT5), purified from supernatant (Protein A)) VH: EVQLVQSGADVKKPGASLTISCQTSGYTLTDYWISWVRQKPGKGLEWMGAISPANSRTSYGPSFQGHVTFSADRSTATAYLQWRSLEASDTAMYYCVRQGAQTDRWGPGTLVTVSS VL: SYELTQPPSVSVPPGQTARITCSGDALPKKYAYWYQQKSGQAPVLVIYEDMKRPSGIPERFSGSSSGTTATLTISGAQVEDEADYYCYSKAFDGNYFVFGGGTKLTVL | – | – | binds
IGX7134 (antibody, V domains shown) VH: EVQLVQSGAVVKKPGASLTISCQASGYTFTDYWFSWVRQKPGKGLEWMGAIAPSTSKTEYGPSFQGLVTISADRSTATANLQWRSLEASDTAMYYCVRQGAHTDSWGPGTLVTVSS VL: SYELTQPPSVSVSPGQTARITCSGDALPKKYAYWYQQKSGQAPVLVIYEDRKRYSGIPERFSGSSSGTMATLTISGAQVEDEADYYCYSKAAKGNYMVFGGGTKLTVL | binds | binds | –
mAb IGX7141 (antibody, V domains shown, heavy-chain variable region from the Epivolve scFv; mouse IgG2 heavy-chain constant region; light-chain variable region LC3; mouse light-chain constant domain; Mouse IgG2 with variable regions selected from a human scFv phage library (Epivolve) and matured by error-prone PCR; source: HEK293-E, transfected (pTT5), purified from supernatant (Protein A)) VH: EVQLVQSGADVKKPGASLTISCQASGYTFTDYWISWVRQKPGKGLEWMGAISPANSRTSYGPSFQGHVTFSADRSTATAYLQWRSLEASDTAMYYCVRQGAQTDSWGPGTLVTVSS VL: SYELTQPPSVSVSPGQTARITCSGDALPKKYAYWYQQKSGQAPVLVIYEDMKRPSGIPERFSGSSSGTMATLTISGAQVEDEADYYCYSKASDGNYFVFGGGTKLTVL | – | – | binds

Reference: PMC10478084, “Use of Epivolve phage display to generate a monoclonal antibody with opsonic activity directed against a subdominant epitope on extracellular loop 4 of Treponema pallidum BamA (TP0326)” (Frontiers in Immunology, 2023)
